Data on one molecule can be found in publication PMC3983218.

In this data set the target is EcoSSB (Escherichia coli, UniProt P0AGE0). Kind of data set: EMSA; Complex I at low and Complex II at high SSB; 0.2, 2, 10 pmol tetramer, 1 pmol DNA; 20 mM Tris-HCl pH 8.0, 50 mM NaCl, 5% glycerol, 50 μg/ml BSA, 15 μl, 30 min at 4°C; 8% native PAGE in 1x TBE. Conditions: protein: recombinant; chain copies: 4; label: 5' 32P; single strand. (A gel shift assay detects complexes by their altered migration in electrophoresis.)
Chain of EcoSSB (P0AGE0 whole entry): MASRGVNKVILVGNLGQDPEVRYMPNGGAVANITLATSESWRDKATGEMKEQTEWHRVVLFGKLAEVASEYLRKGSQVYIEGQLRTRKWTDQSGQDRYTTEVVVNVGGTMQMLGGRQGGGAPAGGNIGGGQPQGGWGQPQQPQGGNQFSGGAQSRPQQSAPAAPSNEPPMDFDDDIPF

B1: 79 mer ssDNA (ssDNA)
DNA: GCACTAGTGCGGATAGCCCCGTGTTGTTGTCTGACCCCCGACCCCGACGGCAATGCGGGGCAATCCCCTGGAGGCCTGC
B1: the binding result was “binds”.
